Fold association relative to WT YAP data for one substance are collected here from publication PMC7398163.

For this assay, the target named is FLAG-YAP tagged with a nuclear exclusion sequence (NES) (human) (UniProt P46937). The assay can be described thus: co-IP.

In turn, “IQGAP1 (from UniProt Q9JKF1 1-1657) (natural protein)” showed a fold association relative to WT YAP of 2 fold.
